In publication PMC5036006:

Tests used:
Assay in all cases: co-immunoprecipitation from transfected HEK293T
Settings in all cases: reference: wild-type parafibromin; sites Y290,Y293,Y315
[1] = biological target: Gli1 (UniProt P08151)
[2] = biological target: Notch intracellular domain (NICD) intracellular domain, 1744-2183 (UniProt Q01705)
[3] = biological target: β-catenin (UniProt P35222)

- binding against the reference [1]: stronger
- binding against the reference [2]: stronger
- binding against the reference [3]: stronger
Substance: parafibromin (from UniProt Q6P1J9) PR-parafibromin Y290/293/315F
